Assay [1] addresses full-length human EGFR S492R on NIH3T3 cells (human) (UniProt P00533). Put plainly: FACS.
For assay [2], the target named is full-length human wild-type EGFR on NIH3T3 cells (human) (UniProt P00533). Put plainly: FACS.
The next assay has as its target WT-EGFR-ECD-Fc (human) (UniProt P00533). The experiment in a line: ELISA.
Assay [3] has as its target S492R-EGFR-ECD-Fc (human) (UniProt P00533). The experiment in a line: ELISA. A general note: In an ELISA, binding on a coated surface is turned into a signal by an enzyme label.

As usually defined, the Kd is the concentration at which binding is half-saturated.

In the case of Panitumumab, the Kd in assay [1] is 2.33 nM; in assay [2] it was 2.36 nM; with WT-EGFR-ECD-Fc (human) it was 0.0211 nM; in assay [3], 0.0272 nM.

(Values after article PMC9338999.)
